The test system of this data set is PspGI restriction endonuclease (recombinant, pPspGIR70) (Pyrococcus species G-I-H). Put plainly: cleavage_in_vitro. The settings on record: approximate titer of crude extract on T7 DNA; NEBuffer III, 65 C 1 h.

Consider T7 DNA, for which the activity (units/g cells) turned out to be 20000.

The values above are taken from patent publication US5849558.
